From PMC8746653, “Biochemical and Structural Analysis of a Glucose-Tolerant β-Glucosidase from the Hemicellulose-Degrading Thermoanaerobacterium saccharolyticum” (Molecules, 2022)

Experiments:
TsaBgl [1] = molecular target: T1, TsaBgl (Thermoanaerobacterium saccharolyticum, UniProt I3VXG7); experiment: pNPG hydrolysis, pNP release at […] nm, inhibitor titration; type: biochemical; settings: read-out: concentration that reduced the enzyme activity by half
T1 construct: gene Tsac_2208

TsaBgl [2] = molecular target: T1, TsaBgl; experiment: X-ray crystal structure, […] Å; type: binding; settings: Tris from buffer bound at active site, contacts Glu163 and Glu351; crystallised in 0.1 M Tris-HCl pH 7.0
purified protein = substrate: O=[N+]([O-])c1ccc(O[C@@H]2O[C@H](CO)[C@@H](O)[C@H](O)[C@H]2O)cc1; experiment: purified protein; settings: 100 mM sodium phosphate pH 6.0, 55 °C, 0-10 mM pNPG

Molecule	IC50 (TsaBgl [1])	X-ray crystal structure, 1.70 Å (TsaBgl [2])	Km (purified protein)	kcat (purified protein)	kcat/Km (purified protein)
NC(CO)(CO)CO [Tris]	~10 mM	one Tris molecule was bound to the active site			
TsaBgl (Thermoanaerobacterium saccharolyticum JW/SL-YS485) (protein) MLDFSKDFLFGVATASYQVEGAYNEDGRTMSIWDTFSRQDGKVYKSHNGDVACDHYHLYKDDVKMMKDLGIEAYRFSIAWPRIFPAKGQYNPKGMDFYKRLTDELLKNDIKPFATIYHWDLPQWADDLGGWLNREIVEWYGEYAEKLFSELGGYIKNWITLNEPWCSSFLSYFIGEHAPGHKDLGEALLVSHNLLLSHGKAVEIFRGLNLDDSKIGITLNLNEVFPASDSDDDKVAAQIADGFQNRWFLDPLFKGKYPQDMVEYFGKYAKVDFINDEDLKLISQKLDFLGVNYYTRAVVQKGNDGLLDAVQIDPGNERTEMGWEIYPESLYNILMRLKREYTYDMPLYITENGAAFNDVVEDDGRVHDEKRVEFLKQHFKEAKRFLNDGGNLKGYFVWSLMDNFEWAHGYSKRFGIVYVDYETEKRILKDSALWYKDLISTRTI			360 ± 20 µM	18.6 s⁻¹	51000 M⁻¹ s⁻¹
